Molecular target: RAC3 (human, UniProt P60763 1-192)
Test: stopped-flow fluorimetry; association (kobs) at one concentration: 2 µM GDI mixed with 0.2 µM mdGDP-bound RHO GTPase; 25 °C, 30 mM Tris/HCl pH 7.5, 10 mM K2HPO4/KH2PO4 pH 7.5, 5 mM MgCl2, 3 mM DTT
Settings: both partners purified

binding result: binds
B1: GDI3ΔN20 (domain or fragment, human, UniProt Q99819 21-225, looked up)
chain: LCARVLLADKEGGPPAVDEVLDEAVPEYRAPGRKSLLEIRQLDPDDRSLAKYKRVLLGPLPPAVDPSLPNVQVTRLTLLSEQAPGPVVMDLTGDLAVLKDQVFVLKEGVDYRVKISFKVHREIVSGLKCLHHTYRRGLRVDKTVYMVGSYGPSAQEYEFVTPVEEAPRGALVRGPYLVVSLFTDDDRTHHLSWEWGLCICQDWKD

From article PMC8622166 (International Journal of Molecular Sciences, 2021)
